# Ends that are not written are not given here. Pam2 = S-(2,3-dihydroxypropyl)-cysteine acylated by two palmitic acids (lipo-cysteine)
# Target: TLR2/TLR6 heterodimer
# Test: cell-based or functional assay
row,Binder,NF-κB activation
1,VQGEESNDK (not fully specified (N-terminus)) [CBLB612],200
2,GEESN (not fully specified (N-terminus)) [CBLB615],200
3,Pam2-GSHHM [CBLB604],0
4,Pam2-GQHHH [CBLB602],0
5,{R‑Pam2}-GDPKHPKSF [CBLB606],100
6,Pam2-GDPKHPKSFTGWVA [CBLB607],2
7,Pam2-FEPPPATTTKSK [CBLB608],2
8,GETDKEGKIIRIFDNSF (not fully specified (N-terminus)) [CBLB611],0
9,Pam2-SQMHH [CBLB605],2
10,Pam2-GQHHM [CBLB603],0
11,"CSKKKK (N-terminal Cys is the R-Pam2 lipoamino acid (S-(2,3-dihydroxypropyl)-cysteine acylated by two palmitic acids, R stereoisomer)) [CBLB601 (R-PAM2C-SKKKK)]",100
12,QGEESNDK (not fully specified (N-terminus)) [CBLB614],200

# Reference: US8524668 (CLEVELAND CLINIC FOUNDATION, dated 2013)
